6 molecules from patent US20200332006A1 (ULTRAHUMAN NINE, published 2020) can be followed below.

The target of test [1] is T1, human CD20, expressed on HEK293 cells (human, UniProt P11836 1-297).
T1 construct: whole, on cells
T1 sequence (looked up): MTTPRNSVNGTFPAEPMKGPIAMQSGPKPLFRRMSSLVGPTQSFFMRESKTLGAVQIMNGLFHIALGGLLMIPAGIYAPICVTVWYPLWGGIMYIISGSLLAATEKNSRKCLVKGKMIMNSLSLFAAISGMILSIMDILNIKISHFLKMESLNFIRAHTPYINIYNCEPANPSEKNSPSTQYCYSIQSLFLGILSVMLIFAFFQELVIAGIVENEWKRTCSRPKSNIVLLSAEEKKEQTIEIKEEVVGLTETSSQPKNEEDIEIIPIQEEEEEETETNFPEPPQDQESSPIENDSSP
Description: flow cytometry on transfected HEK293 cells, no primary antibody.

For test [2], the target named is T2, human LSAMP, expressed on HEK293 cells (human, UniProt Q13449 29-315).
T2 construct: also called BC033803
T2 sequence: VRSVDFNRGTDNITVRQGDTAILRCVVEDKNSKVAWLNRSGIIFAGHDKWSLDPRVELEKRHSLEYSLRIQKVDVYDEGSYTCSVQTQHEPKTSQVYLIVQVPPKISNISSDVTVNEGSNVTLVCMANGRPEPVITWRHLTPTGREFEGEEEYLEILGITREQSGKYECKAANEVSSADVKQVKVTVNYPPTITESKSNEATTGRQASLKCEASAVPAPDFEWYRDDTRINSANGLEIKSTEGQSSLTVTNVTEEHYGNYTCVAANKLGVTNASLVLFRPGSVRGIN
The description is as above.

Test [3] addresses T3, human BTN2A1, expressed on HEK293 cells (human, UniProt Q7KYR7 29-527).
T3 construct: also called NM_007049
T3 sequence: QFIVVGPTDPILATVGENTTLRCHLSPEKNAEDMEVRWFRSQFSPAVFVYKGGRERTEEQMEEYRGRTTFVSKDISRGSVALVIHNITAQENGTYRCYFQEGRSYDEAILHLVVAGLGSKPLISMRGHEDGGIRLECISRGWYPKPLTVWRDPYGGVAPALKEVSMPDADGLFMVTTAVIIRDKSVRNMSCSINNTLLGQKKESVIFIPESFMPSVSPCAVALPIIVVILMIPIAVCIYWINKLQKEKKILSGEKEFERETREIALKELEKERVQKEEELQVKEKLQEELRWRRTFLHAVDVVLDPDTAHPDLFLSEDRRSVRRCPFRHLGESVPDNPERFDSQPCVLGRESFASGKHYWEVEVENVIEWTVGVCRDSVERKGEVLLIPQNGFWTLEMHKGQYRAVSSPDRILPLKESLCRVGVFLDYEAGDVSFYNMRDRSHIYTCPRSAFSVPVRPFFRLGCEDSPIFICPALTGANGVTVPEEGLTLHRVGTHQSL
The test is described as above.

For test [4], the target named is T4, cynomolgus monkey PD1 human Fc tagged recombinant protein (cynomolgus monkey, UniProt Q15116 25-170 (human entry), limits assumed).
T4 construct: also called cyno PD1-Fc; cyPD1
T4 chain: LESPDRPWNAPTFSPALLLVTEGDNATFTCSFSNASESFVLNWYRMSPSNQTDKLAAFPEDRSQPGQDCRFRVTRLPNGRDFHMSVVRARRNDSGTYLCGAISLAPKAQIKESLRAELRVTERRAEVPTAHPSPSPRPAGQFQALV
Description: direct titration ELISA, IgG1null on coated PD1-Fc (reference antibody). The method, then:
(§1) Binding and cross-reactivity of the lead panel to the recombinant proteins was initially assessed by binding ELISA. The human PD1 human Fc tagged recombinant protein and the cynomolgus monkey PD1 human Fc tagged recombinant protein were coated to the surface of MaxiSorp™ flat-bottom 96 well plate at 1 μg/ml. The Fab samples were applied at 1:5 dilution in 1% Skimmed Milk/1×PBS; 1 h at RT; 100 μl/well. IgGs were titrated in two fold serial dilutions starting from 500 nM to 0.98 nM and allowed to bind to the coated antigens. The Fabs were detected using mouse anti-c-myc antibody followed by donkey anti-mouse IgG conjugated to horseradish peroxidase. The IgGs were detected using the mouse anti-human IgG conjugated to horseradish peroxidase. Binding signals were visualized with 3,3′,5,5′-Tetramethylbenzidine Substrate Solution (TMB) and the absorbance measured at 450 nm.
In general terms: In an ELISA, binding on a coated surface is turned into a signal by an enzyme label.

In test [5] the target is T5, biotinylated human PD1-His/AviTag (human, UniProt Q15116 25-170, biotinylated (AviTag)).
T5 construct: also called biotinylated monomeric human PD1
Description: AlphaScreen epitope competition; titrated IgG against mu317 IgG (parental IgG, 0.3 nM) on biotinylated monomeric human PD1. The method, then:
(§2) The AlphaScreen assay (Perkin Elmer) was performed in a 25 μl final volume in 384-well white microtiter plates (Greiner). The reaction buffer contained 1×PBS pH 7.3 (Oxoid, Cat. nr. BR0014G) and 0.05% (v/v) Tween® 20 (Sigma, Cat. nr. P9416). Purified IgG samples were titrated in three fold serial dilutions starting at 500 nM final concentration and incubated with biotinylated human PD1-His/AviTag at 0.6 nM final concentration for 20 minutes at room temperature. […] Followed by addition of the Streptavidin Donor beads at 20 μg/ml (final concentration) and incubation for 30 minutes at room temperature. The emission of light was measured in the EnVision multilabel plate reader (Perkin Elmer) and analysed using the EnVision manager software. Values were reported as Counts Per Second (CPS) and corrected for crosstalk.
In general terms: In Alpha technology, singlet oxygen from a donor bead excites a nearby acceptor bead.

Test [6] deals with T1, human CD20, expressed on HEK293 cells. Kind of test: flow cytometry on transfected HEK293 cells, 2 ug/ml IgG. The procedure: (§3) FIG. 11. […] Analyses of binding specificity were performed on HEK293 cells transiently transfected with plasmids encoding either human PD1, human BTN2A1, human LSAMP, human CD20 or ZS green marker only. Each antibody was used in staining at […] concentration and histograms are indicated per antibody in this figure.
(§4) Human cell membrane receptor proteome arrays were performed at Retrogenix Ltd. Primary screens: 2 μg/ml of each antibody was screened for binding against fixed HEK293 cells/slides expressing 5528 human plasma membrane and tethered secreted proteins individually. […] Antibody binding was detected using AF647 fluorescent secondary anti-human IgG1 antibody. Primary hits (duplicate spots) were identified by analysing fluorescence (AF647 and ZsGreen1) on ImageQuant. Confirmation/specificity screens: Expression vectors encoding ZsGreen1 only, or ZsGreen1 and CD20, PD1, BTN2A1, or LSAMP were transfected into human HEK293 cells. […] Cells were washed, and incubated with the same AF647 anti-human IgG Fc detection antibody as used in the cell microarray screens. Cells were again washed, and analysed by flow cytometry using an Accuri flow cytometer (BD). A 7AAD live/dead dye was used to exclude dead cells, and ZsGreen1-positive cells (i.e. transfected cells) were selected for analyses.

For test [7], the target named is T2, human LSAMP, expressed on HEK293 cells. Described as above. The procedure: as §3, §4
Test [8] deals with T3, human BTN2A1, expressed on HEK293 cells. Described as above. The method, then: as §3, §4
In test [9] the target is T5, biotinylated human PD1-His/AviTag. Description: AlphaScreen epitope competition; competitor mu317 IgG on biotinylated monomeric human PD1. The method, then: as §2
In test [10] the target is T3, human BTN2A1, expressed on HEK293 cells. Description: flow cytometry on live transfected HEK293 cells. The procedure:
as §3, §4
For orientation: In flow cytometry, cells or beads pass a laser one at a time.

Test [11] deals with T6, human PD1 human Fc tagged recombinant protein (human, UniProt Q15116 25-170).
T6 construct: also called human PD1-Fc; huPD1
Description: direct titration ELISA, IgG1null on coated PD1-Fc. The method, then: as §1

The target in test [12] is T4, cynomolgus monkey PD1 human Fc tagged …. Description: direct titration ELISA, IgG1null on coated PD1-Fc. The procedure: as §1

Changes are numbered by the printed parent chain. Numbers in names are those of the source.

T5 sequence (Q15116 25-170 limits assumed): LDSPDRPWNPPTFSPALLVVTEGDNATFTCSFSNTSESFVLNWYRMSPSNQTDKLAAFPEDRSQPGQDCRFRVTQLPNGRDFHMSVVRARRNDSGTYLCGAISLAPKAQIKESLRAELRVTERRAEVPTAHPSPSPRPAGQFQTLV
T6 sequence (Q15116 25-170 limits assumed): as above

Turning to “AF647 anti-human IgG Fc detection antibody alone”, the fold fluorescence change versus mock (ZSgreen only) cells was found to be 0.9 fold in test [1], 1.5 fold in [2] and 1.1 fold in test [3].

B1: Mu317 murine anti-PD1 v-domains, produced in human IgG1null format (antibody, V domains shown)
VH: QVQLKESGPGLVAPSKNLSITCTVSGFSLTSYGVHWIRQPPGKGLEWLGVIWAGGSTNYNSALMSRLSISKDNSRSQVFLRMNSLQTDDTAMYYCARAYGNYWYIDVWGAGTTVTVSS
VL: DIVMTQTPKFLLVSAGDRVTITCKASQSVSNDVAWYQQKPGQSPKLLINYAFHRFTGVPDRFTGSGYGTDFIFTISTVQAEDLAVYFCHQAYSSPYTFGGGTKLEMK
notes: Tested as IgG1null (human IgG1 with L234A, L235A, G237A) with human Ckappa; also called Mu317 IgG1; parental IgG
A word on the IC50: it is the midpoint of a concentration-inhibition curve. Take B1: in test [4], the binding result was “binds”. For the same molecule, the IC50 in test [5] was found to be 0.37 nM.

B2: Antibody MH8, IgG1null format (antibody, V domains shown)
VH: EVQLVESGGGLVQPGGSLRLSCAASGFTFSSYGMSWVRQAPGKGLEWVANIWQDGSTKYVDSVKGRFTISRDNAKNSLYLQMNSLRAEDTAVYYCARAYGNYWYIDRWGQGTTVTVSS
VL: DIVMTQSPDSLAVSLGERATINCKSSQSVTNDVAWYQQKPGQPPKLLINYAYHRFTGVPDRFSGSGYGTDFTLTISSLQAEDVAVYYCHQAYSTPYTFGQGTKLEIK
notes: Tested as IgG1null (human IgG1 L234A, L235A, G237A) with human Ckappa; also called clone MH8
Regarding B2, the “fold fluorescence change versus mock (ZSgreen only) cells” value (from here on “fold fluorescence change versus mock”) amounted to 0.9 fold in [6], 7.1 fold in test [7] and 1.1 fold in test [8]. In test [9], the IC50 came out at 0.39 nM. Moreover, in test [10], the binding result is reported as “no binding (tested: 2 ug/ml)”.

B3: Antibody 09C06, IgG1null format (antibody, V domains shown)
VH: B2 VH with T28S, S35H, K58N
VL: B2 VL with T30S, Y52S
notes: Library-derived clone; Tested as IgG1null (human IgG1 L234A, L235A, G237A) with human Ckappa; also called clone 09C06
B3: the binding result in [11] and in test [12] was “binds” in each case.

B4: Antibody MH12, IgG1null format (antibody, V domains shown)
VH: B2 VH with T57E
VL: B2 VL
notes: Tested as IgG1null (human IgG1 L234A, L235A, G237A) with human Ckappa; also called clone MH12
On to B4, for which the figures for the “fold fluorescence change versus mock” value in [6], in test [7] and in test [8] were 1.1 fold, 4.1 fold and 1.3 fold, respectively. This molecule returned an IC50 in test [9] of 0.624 nM.

B5: Antibody MH4, IgG1null format (antibody, V domains shown)
VH: B2 VH with T28S, F29L, N50V, K58N
VL: B2 VL
notes: Tested as IgG1null (human IgG1 L234A, L235A, G237A) with human Ckappa; also called clone MH4
Take B5: the results for the “fold fluorescence change versus mock” value in [6], in test [7] and in test [8] were 1.1 fold, 1.9 fold and 1.2 fold, respectively. In test [9], the half-inhibitory concentration (IC50) is 0.63 nM. Also, in test [10], the binding result is “no binding (tested: 2 ug/ml)”.
